{
  "source": "paper PMC11618073",
  "key": {"[1]": {"target": "heterotypic S. cerevisiae nucleosome (one Htz1–H2B dimer and one H2A–H2B dimer) (S. cerevisiae) (UniProt P04911)", "test": "FRET or BRET; single-molecule FRET (prism-TIRF); biotinylated nucleosome or hexasome with Cy3 on the 2-bp DNA overhang immobilised via neutravidin; 10 nM SWR1(647N) injected; 25 mM Tris-HCl pH 7.8, 100 mM KCl, 4% glycerol, 1 mM EDTA, 2 mM MgCl2, 0.2 mg/ml BSA; room temperature; 100-ms frames"}, "[2]": {"target": "canonical S. cerevisiae nucleosome (two H2A–H2B dimers) on Widom 601 DNA (S. cerevisiae) (UniProt P04911)", "test": "single-molecule fluorescence colocalisation; surface-immobilised 113N2.AF488 nucleosome; 5 nM SWR1(647N) with 1 mM ATP injected; 25 mM Tris-HCl pH 7.8, 100 mM KCl, 4% glycerol, 1 mM EDTA, 2 mM MgCl2, 0.2 mg/ml BSA; 22 °C; time to bind and bound lifetime from tMAVEN"}},
  "data": [
    {"substance": "SWR1(Atto647N–Arp6) (from UniProt Q05471 1-1514; Q12509 1-438; Q03433 1-280; Q03388 1-795; Q03940 1-463; Q12464 1-471; P38326 1-303) (complex)", "values": [
      {"measurement": "dwell time on the Htz1–H2B face (single fast exponential decay)", "setting": "[1]", "value": 0.63, "unit": "s"},
      {"measurement": "lifetime of the bound complex (stably bound species)", "setting": "[2]", "value": 19, "unit": "min"},
      {"measurement": "time to bind", "setting": "[2]", "value": 6.58, "unit": "min"}
    ]}
  ]
}
